Source: paper PMC12416549 (2024)

T1: TNFR1 (Homo sapiens, UniProt P19438)
T1 chain: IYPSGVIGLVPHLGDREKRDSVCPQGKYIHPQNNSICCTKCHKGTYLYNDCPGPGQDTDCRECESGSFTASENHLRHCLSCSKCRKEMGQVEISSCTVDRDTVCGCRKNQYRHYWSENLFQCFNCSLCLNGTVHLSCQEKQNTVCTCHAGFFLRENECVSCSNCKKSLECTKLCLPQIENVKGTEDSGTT


Target: T1, TNFR1
Assay: yeast display SC50

| Binder | apparent Kd (screen) [nM] |
| --- | --- |
| K23C (designed binder) SMEEEVEKAAKEYEKKKKEAIECHLEKLKAKDKEAAERFLKELEEAAKEYAKDEAKTMSEEEAKRRAKKYKEKVLLSELSEEEQKEIKEAEEKLVRTILKYVEEAAK | 0.49 |
| E45S (designed binder) SMEEEVEKAAKEYEKKKKEAIEKHLEKLKAKDKEAAERFLKELESAAKEYAKDEAKTMSEEEAKRRAKKYKEKVLLSELSEEEQKEIKEAEEKLVRTILKYVEEAAK | 2.73 |
| A30T (designed binder) SMEEEVEKAAKEYEKKKKEAIEKHLEKLKTKDKEAAERFLKELEEAAKEYAKDEAKTMSEEEAKRRAKKYKEKVLLSELSEEEQKEIKEAEEKLVRTILKYVEEAAK | 1.16 |
| I21K (designed binder) SMEEEVEKAAKEYEKKKKEAKEKHLEKLKAKDKEAAERFLKELEEAAKEYAKDEAKTMSEEEAKRRAKKYKEKVLLSELSEEEQKEIKEAEEKLVRTILKYVEEAAK | 0.446 |
| R65Q (designed binder) SMEEEVEKAAKEYEKKKKEAIEKHLEKLKAKDKEAAERFLKELEEAAKEYAKDEAKTMSEEEAKQRAKKYKEKVLLSELSEEEQKEIKEAEEKLVRTILKYVEEAAK | 0.304 |
| K33G (designed binder) SMEEEVEKAAKEYEKKKKEAIEKHLEKLKAKDGEAAERFLKELEEAAKEYAKDEAKTMSEEEAKRRAKKYKEKVLLSELSEEEQKEIKEAEEKLVRTILKYVEEAAK | 1.16 |
| K69C (designed binder) SMEEEVEKAAKEYEKKKKEAIEKHLEKLKAKDKEAAERFLKELEEAAKEYAKDEAKTMSEEEAKRRAKCYKEKVLLSELSEEEQKEIKEAEEKLVRTILKYVEEAAK | 2.48 |
| K33A (designed binder) SMEEEVEKAAKEYEKKKKEAIEKHLEKLKAKDAEAAERFLKELEEAAKEYAKDEAKTMSEEEAKRRAKKYKEKVLLSELSEEEQKEIKEAEEKLVRTILKYVEEAAK | 0.49 |
| E61N (designed binder) SMEEEVEKAAKEYEKKKKEAIEKHLEKLKAKDKEAAERFLKELEEAAKEYAKDEAKTMSENEAKRRAKKYKEKVLLSELSEEEQKEIKEAEEKLVRTILKYVEEAAK | 1.4 |
| A10N (designed binder) SMEEEVEKANKEYEKKKKEAIEKHLEKLKAKDKEAAERFLKELEEAAKEYAKDEAKTMSEEEAKRRAKKYKEKVLLSELSEEEQKEIKEAEEKLVRTILKYVEEAAK | 2.48 |
| A35K (designed binder) SMEEEVEKAAKEYEKKKKEAIEKHLEKLKAKDKEKAERFLKELEEAAKEYAKDEAKTMSEEEAKRRAKKYKEKVLLSELSEEEQKEIKEAEEKLVRTILKYVEEAAK | 0.49 |
| K41M (designed binder) SMEEEVEKAAKEYEKKKKEAIEKHLEKLKAKDKEAAERFLMELEEAAKEYAKDEAKTMSEEEAKRRAKKYKEKVLLSELSEEEQKEIKEAEEKLVRTILKYVEEAAK | 0.446 |

Further lines, results first:

| apparent Kd (screen) [nM] | Binder |
| --- | --- |
| 0.956 | K100N (designed binder) SMEEEVEKAAKEYEKKKKEAIEKHLEKLKAKDKEAAERFLKELEEAAKEYAKDEAKTMSEEEAKRRAKKYKEKVLLSELSEEEQKEIKEAEEKLVRTILNYVEEAAK |
| 0.593 | K71H (designed binder) SMEEEVEKAAKEYEKKKKEAIEKHLEKLKAKDKEAAERFLKELEEAAKEYAKDEAKTMSEEEAKRRAKKYHEKVLLSELSEEEQKEIKEAEEKLVRTILKYVEEAAK |
| 2.73 | E72S (designed binder) SMEEEVEKAAKEYEKKKKEAIEKHLEKLKAKDKEAAERFLKELEEAAKEYAKDEAKTMSEEEAKRRAKKYKSKVLLSELSEEEQKEIKEAEEKLVRTILKYVEEAAK |
| 2.73 | R96G (designed binder) SMEEEVEKAAKEYEKKKKEAIEKHLEKLKAKDKEAAERFLKELEEAAKEYAKDEAKTMSEEEAKRRAKKYKEKVLLSELSEEEQKEIKEAEEKLVGTILKYVEEAAK |
| 0.653 | A106P (designed binder) SMEEEVEKAAKEYEKKKKEAIEKHLEKLKAKDKEAAERFLKELEEAAKEYAKDEAKTMSEEEAKRRAKKYKEKVLLSELSEEEQKEIKEAEEKLVRTILKYVEEAPK |
| 0.49 | V74W (designed binder) SMEEEVEKAAKEYEKKKKEAIEKHLEKLKAKDKEAAERFLKELEEAAKEYAKDEAKTMSEEEAKRRAKKYKEKWLLSELSEEEQKEIKEAEEKLVRTILKYVEEAAK |
| 1.86 | E86F (designed binder) SMEEEVEKAAKEYEKKKKEAIEKHLEKLKAKDKEAAERFLKELEEAAKEYAKDEAKTMSEEEAKRRAKKYKEKVLLSELSEEEQKFIKEAEEKLVRTILKYVEEAAK |
| 3 | S80W (designed binder) SMEEEVEKAAKEYEKKKKEAIEKHLEKLKAKDKEAAERFLKELEEAAKEYAKDEAKTMSEEEAKRRAKKYKEKVLLSELWEEEQKEIKEAEEKLVRTILKYVEEAAK |
| 1.54 | A106T (designed binder) SMEEEVEKAAKEYEKKKKEAIEKHLEKLKAKDKEAAERFLKELEEAAKEYAKDEAKTMSEEEAKRRAKKYKEKVLLSELSEEEQKEIKEAEEKLVRTILKYVEEATK |
| 0.446 | K88N (designed binder) SMEEEVEKAAKEYEKKKKEAIEKHLEKLKAKDKEAAERFLKELEEAAKEYAKDEAKTMSEEEAKRRAKKYKEKVLLSELSEEEQKEINEAEEKLVRTILKYVEEAAK |
| 0.79 | L79M (designed binder) SMEEEVEKAAKEYEKKKKEAIEKHLEKLKAKDKEAAERFLKELEEAAKEYAKDEAKTMSEEEAKRRAKKYKEKVLLSEMSEEEQKEIKEAEEKLVRTILKYVEEAAK |
| 0.446 | K93D (designed binder) SMEEEVEKAAKEYEKKKKEAIEKHLEKLKAKDKEAAERFLKELEEAAKEYAKDEAKTMSEEEAKRRAKKYKEKVLLSELSEEEQKEIKEAEEDLVRTILKYVEEAAK |
| 2.73 | L79S (designed binder) SMEEEVEKAAKEYEKKKKEAIEKHLEKLKAKDKEAAERFLKELEEAAKEYAKDEAKTMSEEEAKRRAKKYKEKVLLSESSEEEQKEIKEAEEKLVRTILKYVEEAAK |
| 0.446 | E103A (designed binder) SMEEEVEKAAKEYEKKKKEAIEKHLEKLKAKDKEAAERFLKELEEAAKEYAKDEAKTMSEEEAKRRAKKYKEKVLLSELSEEEQKEIKEAEEKLVRTILKYVAEAAK |
